No end group written: not given here.
T1: human extracellular ErbB4/Fc chimera (human, UniProt Q15303 26-651)
T1 construct: ErbB4, human, extracellular part; also called Fc-conjugated ErbB4; source: bought: R&D Systems (carrier free)
T1 sequence (looked up): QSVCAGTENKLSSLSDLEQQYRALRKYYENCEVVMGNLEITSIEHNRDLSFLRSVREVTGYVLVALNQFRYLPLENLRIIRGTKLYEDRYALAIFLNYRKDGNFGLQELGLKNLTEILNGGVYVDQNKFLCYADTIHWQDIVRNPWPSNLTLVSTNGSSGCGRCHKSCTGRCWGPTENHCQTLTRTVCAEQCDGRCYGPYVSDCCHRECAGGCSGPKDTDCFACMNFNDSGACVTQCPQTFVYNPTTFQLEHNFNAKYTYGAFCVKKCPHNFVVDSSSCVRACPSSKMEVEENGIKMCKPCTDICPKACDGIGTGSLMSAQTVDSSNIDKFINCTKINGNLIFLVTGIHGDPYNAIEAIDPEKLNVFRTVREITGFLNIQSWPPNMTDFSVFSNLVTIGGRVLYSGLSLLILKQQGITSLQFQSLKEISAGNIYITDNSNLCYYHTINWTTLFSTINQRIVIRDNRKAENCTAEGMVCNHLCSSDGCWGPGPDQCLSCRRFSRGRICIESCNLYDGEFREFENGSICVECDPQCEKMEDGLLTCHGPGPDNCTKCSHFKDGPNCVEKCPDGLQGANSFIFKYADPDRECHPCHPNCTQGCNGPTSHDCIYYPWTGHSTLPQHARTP

B1: Recombinant human S100A4 (natural protein)
chain: not shown
notes: S100A4 protein, human, recombinant

Key:
Conditions in all cases: both partners purified
[1] = biological target: T2, human extracellular ErbB1/Fc chimera (human, UniProt P00533 25-645); experiment: SPR; BIAcore 2000; 2000 RU of ErbB/Fc chimera immobilized covalently on a CM4 chip; S100A4 or peptides as analyte; apparent affinities calculated from binding kinetics
T2 construct: ErbB1 (EGFR), human, extracellular part; also called EGFR; EGFR-Fc; source: bought: R&D Systems (carrier free)

[2] = biological target: T3, human extracellular ErbB3/Fc chimera (human, UniProt P21860 20-643); experiment: as above
T3 construct: ErbB3, human, extracellular part; also called Fc-conjugated ErbB3; source: bought: R&D Systems (carrier free)
T3 sequence (P21860 20-643, change not shown): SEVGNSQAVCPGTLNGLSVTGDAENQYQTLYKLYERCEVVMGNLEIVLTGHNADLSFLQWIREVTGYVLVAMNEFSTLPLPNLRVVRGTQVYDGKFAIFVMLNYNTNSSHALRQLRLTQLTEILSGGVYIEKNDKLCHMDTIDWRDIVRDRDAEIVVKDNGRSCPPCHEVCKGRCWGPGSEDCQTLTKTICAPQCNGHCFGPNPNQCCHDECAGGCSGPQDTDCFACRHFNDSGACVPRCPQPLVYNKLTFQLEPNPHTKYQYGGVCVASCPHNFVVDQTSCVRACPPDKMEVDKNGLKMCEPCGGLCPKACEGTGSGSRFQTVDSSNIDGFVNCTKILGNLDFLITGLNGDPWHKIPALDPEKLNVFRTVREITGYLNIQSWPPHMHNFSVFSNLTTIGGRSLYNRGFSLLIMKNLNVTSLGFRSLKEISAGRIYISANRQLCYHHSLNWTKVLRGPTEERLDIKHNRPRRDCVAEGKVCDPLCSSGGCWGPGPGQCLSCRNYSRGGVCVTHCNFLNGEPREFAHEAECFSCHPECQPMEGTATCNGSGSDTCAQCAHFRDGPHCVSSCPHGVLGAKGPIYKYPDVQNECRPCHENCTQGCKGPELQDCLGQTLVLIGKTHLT

[3] = biological target: T1, human extracellular ErbB4/Fc chimera; experiment: as above
Recombinant human S100A4 = biological target: B1; experiment: SPR; BIAcore 2000; 2000 RU of recombinant human S100A4 immobilized covalently on a CM4 chip; soluble AR or NRG as analyte
Recombinant human S100A4, sequence (P26447 whole entry, the tested form may be a part): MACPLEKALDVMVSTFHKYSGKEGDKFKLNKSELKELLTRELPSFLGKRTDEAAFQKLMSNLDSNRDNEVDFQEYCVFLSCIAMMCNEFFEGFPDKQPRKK

[4] = biological target: T2, human extracellular ErbB1/Fc chimera; experiment: cross-linking; label transfer in solution: 100 nM Sulfo-SBED-conjugated protein with 50 nM Fc fusion or mouse IgG, 30 min in the dark at RT in TBS-Ca2+, UV 302 nm 5 min, precipitated with Protein A Dynabeads, reduced, biotin detected with streptavidin-HRP
[5] = biological target: T3, human extracellular ErbB3/Fc chimera; experiment: as above
[6] = biological target: T1, human extracellular ErbB4/Fc chimera; experiment: as above

Row | Kd [1] | Kd [2] | Kd [3] | Kd (Recombinant human S100A4) | binding result [4] | binding result [5] | binding result [6] | Binder
1 | 21.4 ± 5.5 nM | 58 ± 30 nM | 66 ± 26.9 nM |  |  |  |  | B1
2 | 107 ± 23.1 nM | 203 ± 46.7 nM | 199 ± 53.1 nM |  |  |  |  | KELLTRELPSFLGKRT (also: tetramer: four monomers coupled to a lysine backbone, motif of S100A4 with high homology within the S100 family; Dendrimeric tetramer: four copies of the peptide on a lysine backbone; source: synthetic peptide (Schafer-N, Denmark)) [H3 peptide (S100A4-derived), tetramer on a lysine backbone]
3 |  |  |  | 71.3 ± 12.3 nM |  |  |  | amphiregulin (ligand, UniProt P15514 101-187, looked up, amphiregulin (AR), soluble, ligand of EGFR; also called AR; source: bought: R&D Systems (carrier free)) SVRVEQVVKPPQNKTESENTSDKPKRKKKGGKNGKNRRNRKKKNPCNAEFQNFCIHGECKYIEHLEAVTCKCQQEYFGERCGEKSMK
4 | 802 ± 114 nM | 62.3 ± 18.8 nM | 217 ± 19.9 nM |  |  |  |  | NEFFEGFPDKQPRKK (also: tetramer: four monomers coupled to a lysine backbone, low-homology ('unique') motif in the C-terminal of S100A4; Dendrimeric tetramer: four copies of the peptide on a lysine backbone; source: synthetic peptide (Schafer-N, Denmark)) [H6 peptide (S100A4-derived), tetramer on a lysine backbone]
5 |  |  |  |  | binds | binds | binds | Sulfo-SBED-S100A4 (natural protein, derivatized with sulfo-SBED (biotin label-transfer cross-linker); sites not stated, S100A4 protein, human, recombinant; The same protein as m1, carrying the sulfo-SBED label for the label transfer cross-linking; also called sulfo-SBED-conjugated S100A4) not shown

From publication PMC6071530, “The S100A4 Protein Signals through the ErbB4 Receptor to Promote Neuronal Survival” (Theranostics, 2018)
